B1: Superoxide dismutase [Mn], mitochondrial, P04179 (parent)
chain: MLSRAVCGTSRQLAPVLGYLGSRQKHSLPDLPYDYGALEPHINAQIMQLHHSKHHAAYVNNLNVTEEKYQEALAKGDVTAQIALQPALKFNGGGHINHSIFWTNLSPNGGGEPKGELLEAIKRDFGSFDKFKEKLTAASVGVQGSGWGWLGFNKERGHLQIAACPNQDPLQGTTGLIPLLGIDVWEHAYYLQYKNVRPDYLKAIWNVINWENVTERYMACKK

Variants of: B1
Details: Homo sapiens; pH 7.8; Thermal; DSC; Potassium phosphate 20 mM; reversible: yes; structure 1N0J; whole UniProt chain shown

Variant | Tm [°C] | change of melting temperature, mutant - wild type (higher = more stable) [°C]
MLSRAVCGTSRQLAPVLGYLGSRQKHSLPDLPYDYGALEPHINAQIMQLHHSKHHAAYVNNLNVTEEKYQEALAKGDVTAQIALQPALKFNGGGHINHSIFWTNLSPNGGGEPKGELLEAIKRDFGSFDKFKEKLTAASVGVQGSGWGWLGFNKERGHLQIAACPNSDPLQGTTGLIPLLGIDVWEHAYYLQYKNVRPDYLKAIWNVINWENVTERYMACKK [Q167S] | 94.9 | 6
MLSRAVCGTSRQLAPVLGYLGSRQKHSLPDLPYDYGALEPHINAQIMQLHHSKHHAAYVNNLNVTEEKYQEALAKGDVTAQIALQPALKFNGGGHINHSIFWTNLSPNGGGEPKGELLEAIKRDFGSFDKFKEKLTAASVGVQGSGWGWLGFNKERGHLQIAACPNHDPLQGTTGLIPLLGIDVWEHAYYLQYKNVRPDYLKAIWNVINWENVTERYMACKK [Q167H] | 88.9 | 0
MLSRAVCGTSRQLAPVLGYLGSRQKHSLPDLPYDYGALEPHINAQIMQLHHSKHHAAYVNNLNVTEEKYQEALAKGDVTAQIALQPALKFNGGGHINHSIFWTNLSPNGGGEPKGELLEAIKRDFGSFDKFKEKLTAASVGVQGSGWGWLGFNKERGHLQIAACPNEDPLQGTTGLIPLLGIDVWEHAYYLQYKNVRPDYLKAIWNVINWENVTERYMACKK [Q167E] | 103 | 14.1
MLSRAVCGTSRQLAPVLGYLGSRQKHSLPDLPYDYGALEPHINAQIMQLHHSKHHAAYVNNLNVTEEKYQEALAKGDVTAQIALQPALKFNGGGHINHSIFWTNLSPNGGGEPKGELLEAIKRDFGSFDKFKEKLTAASVGVQGSGWGWLGFNKERGHLQIAACPNVDPLQGTTGLIPLLGIDVWEHAYYLQYKNVRPDYLKAIWNVINWENVTERYMACKK [Q167V] | 68.2 | -20.7
MLSRAVCGTSRQLAPVLGYLGSRQKHSLPDLPYDYGALEPHINAQIMQLHHSKHHAAYVNNLNVTEEKYQEALAKGDVTAQIALQPALKFNGGGHINHSIFWTNLSPNGGGEPKGELLEAIKRDFGSFDKFKEKLTAASVGVQGSGWGWLGFNKERGHLQIAACPNADPLQGTTGLIPLLGIDVWEHAYYLQYKNVRPDYLKAIWNVINWENVTERYMACKK [Q167A] | 79.8 | -9.1
